Earlier results, collected in paper doi:10.1101/2023.08.17.553741.

Molecular target: SARS-CoV-2 spike protein (target of cited Kd) (SARS-CoV-2) (UniProt P0DTC2)
Details: 3' thiol C3, […] (temperature not stated), PBS 1X

TTCCGGTTAATTTATGCTCTACCCGTCCACCTACCGGAATTTTTTTTTTTTTTTTTTTTACGGGTTTGGCGTCGGGCCTGGCGGGGGGATAGTGCGGT [dimeric aptamer (S1-20T-S2-thiolC3)]
Kd: 0.17 nM
